The values below come from PMC4201290, “Wilms tumor protein recognizes 5-carboxylcytosine within a specific DNA sequence”.

B1: crystal oligo Egr1 5mC/5mC (dsDNA)
DNA 1: AGCGTGGGCGT
DNA 2: TACGCCCACGC
modifications: 5mC in both strands of the 3' GCG
B2: crystal oligo Egr1 5hmC/5hmC (dsDNA)
DNA 1: AGCGTGGGCGT
DNA 2: TACGCCCACGC
modifications: 5hmC in both strands of the 3' GCG
B3: crystal oligo Egr1 5fC/5fC (dsDNA)
DNA 1: AGCGTGGGCGT
DNA 2: TACGCCCACGC
modifications: 5fC in both strands of the 3' GCG

The target of the data set is Egr1/Zif268 ZnF1-3 (Homo sapiens, UniProt P18146). In words: X-ray crystallography; Zn2+; FP: 5 nM FAM-dsDNA, 300 mM NaCl (200 mM in Fig 4E), 20 mM Tris-HCl pH 7.5, 5% glycerol, 0.5 mM TCEP, 25 C, 10 min.
Regarding B1, the binding result was “binds”.

For B2, the binding result was “binds”. In the case of B3, the binding result is on record as “binds”.
